# Target: PSMA (prostate-specific membrane antigen) (UniProt Q04609)
# Experiment: SPR
# Settings: 2'-fluoro modified ('2F-modified', positions not stated); 3' spacer-NH2 coupled to DSPE-PEG-NHS nanoparticle; OpenSPR, carboxyl chip with amine coupling, running buffer PBS pH 7.4, 20 uL/min; temperature not stated
# UniProt Q04609, sequence (Q04609 44-750): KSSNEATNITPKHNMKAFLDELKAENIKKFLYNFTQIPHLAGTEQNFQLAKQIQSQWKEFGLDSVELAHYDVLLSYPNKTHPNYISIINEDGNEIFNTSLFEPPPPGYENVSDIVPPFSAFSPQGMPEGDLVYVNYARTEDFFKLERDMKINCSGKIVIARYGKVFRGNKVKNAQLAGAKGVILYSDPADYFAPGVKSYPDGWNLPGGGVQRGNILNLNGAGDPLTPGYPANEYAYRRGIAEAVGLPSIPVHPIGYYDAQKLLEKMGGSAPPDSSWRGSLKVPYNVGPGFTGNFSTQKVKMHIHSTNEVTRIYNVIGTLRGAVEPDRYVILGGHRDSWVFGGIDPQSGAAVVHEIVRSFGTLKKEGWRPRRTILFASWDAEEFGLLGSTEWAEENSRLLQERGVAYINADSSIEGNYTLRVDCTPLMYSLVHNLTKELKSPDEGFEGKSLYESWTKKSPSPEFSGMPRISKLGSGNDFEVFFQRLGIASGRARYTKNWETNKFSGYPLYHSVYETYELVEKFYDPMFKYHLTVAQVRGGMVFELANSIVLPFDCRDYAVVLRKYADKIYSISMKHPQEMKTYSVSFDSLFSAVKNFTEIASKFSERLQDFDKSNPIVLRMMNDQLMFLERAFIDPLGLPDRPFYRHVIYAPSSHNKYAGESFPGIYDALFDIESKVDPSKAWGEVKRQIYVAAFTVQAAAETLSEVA
sequence,measurement,value
GGGAGGACGAUGCGGAUCAGCCAUGUUUACGUCACUCCU,Kd,602 nM
